# Measurements: patent US20210040189A1 (Amgen, published 2021)
# Positions count from the first letter of the chain named.
# T1: human DKK1 (human, UniProt O94907 32-266)
# T1 construct: also called huDKK1; hDKK1
# T1 sequence: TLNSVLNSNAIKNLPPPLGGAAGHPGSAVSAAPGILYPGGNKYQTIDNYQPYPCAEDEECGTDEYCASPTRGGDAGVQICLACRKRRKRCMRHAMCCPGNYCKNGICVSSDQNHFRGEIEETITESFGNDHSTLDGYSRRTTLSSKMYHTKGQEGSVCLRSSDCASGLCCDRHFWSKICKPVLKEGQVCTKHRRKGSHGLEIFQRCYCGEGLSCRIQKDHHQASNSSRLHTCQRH
# T2: mouse DKK1 (mouse, UniProt O54908 32-272)
# T2 construct: also called murine DKK1
# T2 sequence: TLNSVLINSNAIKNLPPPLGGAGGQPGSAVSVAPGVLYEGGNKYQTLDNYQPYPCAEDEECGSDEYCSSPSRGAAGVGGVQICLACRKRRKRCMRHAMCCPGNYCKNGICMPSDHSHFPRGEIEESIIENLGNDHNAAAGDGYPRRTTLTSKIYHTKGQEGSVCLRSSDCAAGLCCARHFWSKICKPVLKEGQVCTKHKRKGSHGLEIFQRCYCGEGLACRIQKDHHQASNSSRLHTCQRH
# B1: 5.23.1 (antibody, V domains shown)
# VH: QVQLVESGGGVVQPGRSLRLSCAASGFTFSSYGMHWVRQAPGKGLEWVAVIWCDGSNKYYADSVKGRFTISRDSSKNTLYLQMNSLRAEDTAVYYCARGGYGSGSYEDYYYGMDVWGQGTTVTVSS
# VL: not shown
# B2: 5.65.1 (antibody, V domains shown)
# VH: EVQLLESGGGLVQPGGSLRLSCAASGFTSGNYAMSWVRQAPGKGLEWVSAISGGGGTTYYADSVEGRFTISRDNSKNTLYLQLNSLRAEDTAVYYCAKEFGELEPRFDYWGQGTLVTVSS
# VL: SYVLTQPPSVSVAPGQTARITCGGNNIGSKSVHWYQQKPGQAPVLVVYDDSDRPSGIPERFSGSNSGNTATLTISRVEAGDEADYYCQVLDSSSDHVIFGGGTKLTVL
# notes: Fully human hybridoma IgG, lambda (Vl)
# B3: 5.76.1 (antibody, V domains shown)
# VH: QLQLQESGPGLVKPSETLSLTCTVSGGSISSSNYYWGWIRQPPGKGLEWIGTIYYSGSTYYTPSLKSRVTISVDTSKNQFSLKLSSVTAADTAVYYCARERAIAVAAIVFFDYWGQGTLVTVSS
# VL: B2 VL with K30E, L90W, S94N, I98V
# notes: as for B2
# B4: 6.147.4 (antibody, V domains shown)
# VH: QVQLVESGGGVVQPGRSLRLSCAASGFTFSRYDMHWVRQAPGKGLEWVAIIFYDGSNKYYADPVKGRFTISRDNSKNTLYLQMNSLRAEDTAVYYCATLAAAFDYWGQGTLVTVSS
# VL: YVLTQPPSVSVAPGQTARITCGGNNIGSKSVHWYQQKPGQAPVLVVYDDSDRPSEIPERFSGSNSGNTATLTISRVEAGDEADYYCQVWDSSSDHVVFGGGTRLTVL
# notes: as for B2
# B5: 5.77.1 (antibody, V domains shown)
# VH: QVQLVQSGAEVKKPGASVKVSCKASGYTFTSYDINWVRQATGQGLEWMGWMNLNSDNTGYAQKFQGRVTMTRNTSISTAYMELSSLRSEDTAVYYCASIAARRDYNYYGMDVWGQGTKVTVSS
# VL: QSPSVSVAPGQTARITCGGNNIGSKSVHWYQQKPGQAPVLVVYDDSDRPSGIPERFSGSNSGNTATLTISRVEAGDEADYYCQVWDSSSDHWVFGGGTKLTVL
# notes: as for B2
# B6: 5.80.1 (antibody, V domains shown)
# VH: EVQLVQSGAEVKKPGESLKISCKGSGYSFTSYWIGWVRQMPGKGLEWMGIIYPGDSDTRYSPSFQGQVTISADKSISTAYLQWSSLTASDTAMYYCARQGESFDYWGQGTLVTVSS
# VL: QSVLTQPPSVSGAPGQRVTISCTGSSSNIGADYDVHWYQQLPGTAPKLLIYDYSNRPSGVPDRFSGSKSGTSASLAITGLQAEDEADYYCQSYDNSLSGYVVFGGGTKLTVL
# notes: as for B2
# B7: 2.20.1 (antibody, V domains shown)
# VH: QVQLVESGGGVVQPGRSLRLSCAASGFTFSSYGMHWVRQAPGKGLEWVAVISYDGSDKYYADSVKGRFTISRDNSKNTLYLQMNSLRAEDTAVYYCARDQWGGSPAGPWGQGTLVTVSS
# VL: DIVMTQTPLSLSVIPGQPASISCKSSQSLLHSDGKTYLYWYLQRPGQPPQLLIYEVSNRFSGVPHRLSGSGSGTDFTLKISRVEAEDVGVYYCMQSIQVPWTFGQGTKVEIK
# notes: Fully human hybridoma IgG, kappa (Vk)
# B8: 2.41.1 (antibody, V domains shown)
# VH: QVQLVESGGGVVQPGRSLRLSCAASGFTFSSYGMHWVRQAPGKGLEWVAVISYDGSDKYYADSVKGRFTISRDNSKNTLYLQMNSLRAEDTAVYYCARAGYSLYYYYGMDVWGQGTTVTVSS
# VL: B7 VL with I14T, R44K, H65D, L67F, I97K, V99L, W101F, Q105P, E110D
# notes: as for B7
# B9: 6.139.5 (antibody, V domains shown)
# VH: QVQLVESGGGVVQPGRSLRLSCAASGFTFSSYGMHWVRQAPGKGLEWVAVISYDGGDQYYADSVKGRFTISRDNSKNTLYLQMNSLRTEDTAEYYCARELRVLWGQGTLVTVSS
# VL: B7 VL with I14T, G16R, R44K, L51F, H65D, L67F, V99L
# notes: as for B7
# B10: 5.78.1 (antibody, V domains shown)
# VH: QVQLVESGGGVVQPGRSLRLSCAASGFTFSSYGMHWVRQAPGKGLEWVAVILYDGSDNYYADSVKGRFTISRDNSKNTLYLQMNSLRAEDTAVYYCAREGIAVAGDYYYYGMDVWGQGTTVTVSS
# VL: EIVLTQSPGTLSVSPGERATLSCRASQSVSSSYLAWYQQKPGQAPRLLIYGASGRATGIPDRFSGSGSGTDFILTISRLEPEDFAVYYCQQYGSSFTFGGGTKVEIK
# notes: as for B7
# B11: 2.47.1 (antibody, V domains shown)
# VH: QVQLQESGPGLVKPSQTLSLTCTVSGGSISSGGYYWSWIRQHPGKGLEWIGDIYYSGSTYYNPSLKSRVTISVDTSKNQFSLKLSSVTAADTAVYYCARDRAYGDYGGDYYYGMDVWGQGTTVTVSS
# VL: DIVMTQTPLSLPVTPGEPASISCRSSQSLLDSDDGDTYLDWYLQKPGQSPQLLIYTLSYRASGVPDRFSGSGSGTDFTLKISRVEAEDVGVYYCMQRIEFPFTFGPGTKVDIK
# notes: as for B7
# B12: 2.4.1 (antibody, V domains shown)
# VH: QVQLMQSGAEVKKPGASVKVSCKASGYTFTSYGISWVRQAPGQGLEWMGWISADNGHTNYAQKLQGRVTMTTDTSTSTAYMELRSLRSDDTAVYYCARDGELLNYYYYYGMDVWGQGTTVTVSS
# VL: DIQMTQSPSSLSASVGDRVTITCRASQGIRDDLGWFQQKPGKAPKRLIYAASSLQSGVPSRFSGSGSGTEFTLTISSLQPEDFATYYCLQHNSYPCSFGQGTKLEFK
# notes: as for B7
# B13: 5.17.1 (antibody, V domains shown)
# VH: QVQLQESGPGLVKPSETLSLTCTVSGGSISSYYWSWIRQPPGKGLEWIGYIYYSGNTNYNPSLKSRVTISVDTSKNQFSLKLRSVTAADTAVYYCARYNWNNDLFDYWGQGTLVTVSS
# VL: DIQMTQSPSSLSASVGDRVTITCQASQDINNYLNWYQQKPGKAPNLLIYDASNLETGVPSRFSGSGSGTDFTFTISSLQPADIATYYCQQYDDFPLTFGGGTKVEIK
# notes: as for B7
# B14: 5.40.1 (antibody, V domains shown)
# VH: B13 VH with Q3L, P40T, I51V, N56S, N58S, V71M, D72Y, N76T, Q77E, R83S
# VL: B13 VL with Q3R, M4L, N30S, K39E, N45K, A81E, D93N
# notes: as for B7
# B15: 5.31.1 (antibody, V domains shown)
# VH: B10 VH with L52W, S56R, D57N, N58K, E99G, I101G, G105D, D106Y, Y107N
# VL: B13 VL with M4V, N30S, N45K, L46F, T56A, A81E, D93N, F94L
# notes: as for B7
# B16: 5.85.1 (antibody, V domains shown)
# VH: B6 VH with G24V, S31T, E46D, T87K, E101I, S102A
# VL: QSVLTQPPSVSGAPGQRVTISCTGSSSNIGAGYDVHWYQQLPRTAPKLLIYGNSNRPSGVPDRFSDSKSGTSASLAITGLQAEDEADYYCQSYDSSLSVIFGGGTKLTVL
# Biological target: T1, human DKK1
# Experiment: BiaCore 2000
# Text: BiaCore allowed us to determine the kd of the selected antibodies.
row,koff,Binder
1,0.000181 s⁻¹,B1
2,0.000525 s⁻¹,B2
3,0.000241 s⁻¹,B3
4,0.000251 s⁻¹,B4
5,< 2e-05 s⁻¹,B5
6,< 2e-05 s⁻¹,B6
7,0.00024 s⁻¹,B7
8,0.0013 s⁻¹,B8
9,0.000209 s⁻¹,B9
10,0.000191 s⁻¹,B10
11,0.00092 s⁻¹,B11
12,0.0006 s⁻¹,B12
13,0.000303 s⁻¹,B13
14,0.000281 s⁻¹,B14
15,0.000105 s⁻¹,B15

# Biological target: T1, human DKK1
# Experiment: cell-based or functional assay
ST2 EC50,TCF EC50,Binder
4.29 nM,1.01 nM,B1
5.87 nM,4.21 nM,B2
4.09 nM,2.55 nM,B3
2.57 nM,3.95 nM,B4
6.23 nM,2.14 nM,B5
5.03 nM,3.22 nM,B6
10.6 nM,4.53 nM,B16
34.7 nM,10.7 nM,B7
89.1 nM,32.1 nM,B8
3.93 nM,9.78 nM,B9
5.7 nM,3.75 nM,B10
–,60.7 nM,B11
17.2 nM,38.6 nM,B12
8.24 nM,3.48 nM,B13
7.24 nM,3.75 nM,B14
10.4 nM,5.29 nM,B15

# Biological target: T1, human DKK1
# Experiment: KinExA 3000 equilibrium binding in solution
# Method: (§1) Accordingly, the affinity of several of these antibodies to DKK1 was further assessed by an equilibrium binding analysis using the more sensitive KinExAtm 3000. For these measurements, Reacti-Gel 6× beads (Pierce, Rockford, Ill.) were pre-coated with human, cynomologous or mouse DKK1 and blocked with BSA. One hundred pM, 300 pM, or 1000 pM of the antibody was mixed with various concentrations of human, mouse or cyno DKK1, ranging in concentration from 1 pM to 50 nM, and equilibrated at room temperature for 8 hours. The mixtures were then passed over the DKK1-coated beads. The amount of bead-bound anti-DKK1 antibody was quantified using goat anti-human-IgG antibody labeled with a fluorescent tag (Cy5; Jackson Immuno Research, West Grove, Pa.). The amount of fluorescent signal measured was proportional to the concentration of free anti-DKK1 antibody in each reaction mixture at equilibrium. The dissociation equilibrium constant (Kd) was obtained from nonlinear regression of the competition curves using a dual-curve one-site homogeneous binding model using the KinExA software.
row,Kd,Binder
1,0.125 nM,B4
2,0.008 nM,B5
3,0.06 nM,B6
4,0.11 nM,B9

# Biological target: T2, mouse DKK1
# Experiment: KinExA 3000 equilibrium binding in solution
# Method: as §1
row,Kd,Binder
1,0.14 nM,B5
2,0.025 nM,B6
